From PMC11667269 (Journal for Immunotherapy of Cancer, 2024)

Experiments:
[1] = biological target: CD19 expressed on K562 cells (K562-CD19) (Homo sapiens, UniProt P15391); experiment: flow cytometry on cells
[2] = biological target: human CD79b (hCD79b) immobilised for surface plasmon resonance (Homo sapiens, UniProt P40259); experiment: SPR
Sequence of human CD79b (hCD79b) immobilised for surface plasmon resonance (P40259 29-229): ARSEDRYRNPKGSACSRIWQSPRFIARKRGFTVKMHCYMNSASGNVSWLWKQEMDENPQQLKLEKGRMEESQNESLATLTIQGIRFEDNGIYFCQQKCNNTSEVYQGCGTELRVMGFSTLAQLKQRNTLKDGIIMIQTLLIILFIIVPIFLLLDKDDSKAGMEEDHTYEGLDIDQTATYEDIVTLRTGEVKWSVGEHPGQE

Sequence of CD19 expressed on K562 cells (K562-CD19) (P15391 20-556): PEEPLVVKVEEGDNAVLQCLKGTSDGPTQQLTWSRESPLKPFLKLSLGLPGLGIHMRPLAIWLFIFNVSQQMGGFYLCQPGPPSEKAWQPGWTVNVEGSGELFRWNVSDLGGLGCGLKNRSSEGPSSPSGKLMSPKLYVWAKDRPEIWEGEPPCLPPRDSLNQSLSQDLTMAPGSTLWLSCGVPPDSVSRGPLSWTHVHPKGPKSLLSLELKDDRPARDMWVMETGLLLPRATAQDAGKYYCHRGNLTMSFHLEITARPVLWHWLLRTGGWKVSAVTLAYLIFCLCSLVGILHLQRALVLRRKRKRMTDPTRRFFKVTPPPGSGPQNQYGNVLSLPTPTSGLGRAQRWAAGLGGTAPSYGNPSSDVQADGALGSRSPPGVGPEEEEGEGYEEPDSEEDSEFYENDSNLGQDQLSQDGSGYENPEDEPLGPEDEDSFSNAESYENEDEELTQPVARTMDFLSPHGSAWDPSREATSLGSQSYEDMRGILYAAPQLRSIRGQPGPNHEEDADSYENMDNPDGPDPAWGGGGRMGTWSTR

binding result [1]: no binding | binding result [2]: binds
B1: CARLY2 monoclonal murine antibody against CD79b (mouse monoclonal IgG1 CD79b.1.50) (antibody, V domains shown)
VH: QVQLQQPGAELVRPGASVKLSCKASGYTFTTYWMNWVKQRPGQGLEWIGMIDPSDSETHYNQMFKDKATLTVDKSSTTAYMQLSSLTSEDSAVYYCARTLSYWGQGTLVTVSA
VL: not shown
